PMC8634136 (The EMBO Journal, 2021)

T1: TIMELESS (human, UniProt Q9UNS1 1-1208)
T1 construct: Stood in the structure as a subunit of m3; residues 7-803 modelled (527-684 not visualised)
T1 sequence: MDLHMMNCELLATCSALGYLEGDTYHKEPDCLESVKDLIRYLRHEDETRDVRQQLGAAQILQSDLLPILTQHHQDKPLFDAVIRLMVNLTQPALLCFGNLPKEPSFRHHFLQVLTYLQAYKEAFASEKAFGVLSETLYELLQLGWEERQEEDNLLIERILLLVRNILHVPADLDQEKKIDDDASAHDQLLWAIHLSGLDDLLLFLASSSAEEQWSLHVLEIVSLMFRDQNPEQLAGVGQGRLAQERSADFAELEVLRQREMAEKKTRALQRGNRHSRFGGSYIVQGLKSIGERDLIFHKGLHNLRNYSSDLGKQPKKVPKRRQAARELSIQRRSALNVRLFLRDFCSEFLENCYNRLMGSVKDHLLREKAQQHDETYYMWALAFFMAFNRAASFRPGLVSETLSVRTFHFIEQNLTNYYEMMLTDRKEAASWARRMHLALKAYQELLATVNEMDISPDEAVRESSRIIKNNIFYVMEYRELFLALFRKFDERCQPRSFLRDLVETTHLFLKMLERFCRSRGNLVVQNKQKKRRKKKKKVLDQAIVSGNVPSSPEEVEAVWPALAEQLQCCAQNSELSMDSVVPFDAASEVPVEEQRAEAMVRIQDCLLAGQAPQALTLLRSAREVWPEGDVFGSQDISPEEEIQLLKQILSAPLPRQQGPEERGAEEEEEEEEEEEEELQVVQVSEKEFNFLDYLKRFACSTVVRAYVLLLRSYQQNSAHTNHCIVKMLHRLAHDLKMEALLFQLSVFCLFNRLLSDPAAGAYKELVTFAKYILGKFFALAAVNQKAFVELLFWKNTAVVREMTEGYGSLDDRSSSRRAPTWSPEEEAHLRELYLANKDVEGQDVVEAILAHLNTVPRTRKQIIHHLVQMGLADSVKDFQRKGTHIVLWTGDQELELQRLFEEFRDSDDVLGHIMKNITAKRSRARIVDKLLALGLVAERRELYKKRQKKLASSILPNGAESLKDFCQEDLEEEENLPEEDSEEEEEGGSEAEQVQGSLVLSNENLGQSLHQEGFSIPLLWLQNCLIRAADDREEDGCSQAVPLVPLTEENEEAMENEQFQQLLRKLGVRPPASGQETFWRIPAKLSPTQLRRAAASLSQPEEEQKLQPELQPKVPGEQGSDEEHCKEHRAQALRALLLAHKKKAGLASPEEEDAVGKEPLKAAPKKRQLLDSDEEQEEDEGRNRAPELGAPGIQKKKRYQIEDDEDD


Columns and labels:
Conditions in all cases: both partners purified
CLASPIN = target: T2, CLASPIN (human, UniProt Q9HAW4-1 1-1339); experiment: cryo-EM structure; independent replisome preparation that also contained CLASPIN; map EMD-13494 (to be published in a separate study), model PDB 7PFO docked into the density
T2 construct: human CLASPIN; residues 284-319, 525-540 and 592-618 modelled
T2 sequence (Q9HAW4 whole entry, the tested form may be a part): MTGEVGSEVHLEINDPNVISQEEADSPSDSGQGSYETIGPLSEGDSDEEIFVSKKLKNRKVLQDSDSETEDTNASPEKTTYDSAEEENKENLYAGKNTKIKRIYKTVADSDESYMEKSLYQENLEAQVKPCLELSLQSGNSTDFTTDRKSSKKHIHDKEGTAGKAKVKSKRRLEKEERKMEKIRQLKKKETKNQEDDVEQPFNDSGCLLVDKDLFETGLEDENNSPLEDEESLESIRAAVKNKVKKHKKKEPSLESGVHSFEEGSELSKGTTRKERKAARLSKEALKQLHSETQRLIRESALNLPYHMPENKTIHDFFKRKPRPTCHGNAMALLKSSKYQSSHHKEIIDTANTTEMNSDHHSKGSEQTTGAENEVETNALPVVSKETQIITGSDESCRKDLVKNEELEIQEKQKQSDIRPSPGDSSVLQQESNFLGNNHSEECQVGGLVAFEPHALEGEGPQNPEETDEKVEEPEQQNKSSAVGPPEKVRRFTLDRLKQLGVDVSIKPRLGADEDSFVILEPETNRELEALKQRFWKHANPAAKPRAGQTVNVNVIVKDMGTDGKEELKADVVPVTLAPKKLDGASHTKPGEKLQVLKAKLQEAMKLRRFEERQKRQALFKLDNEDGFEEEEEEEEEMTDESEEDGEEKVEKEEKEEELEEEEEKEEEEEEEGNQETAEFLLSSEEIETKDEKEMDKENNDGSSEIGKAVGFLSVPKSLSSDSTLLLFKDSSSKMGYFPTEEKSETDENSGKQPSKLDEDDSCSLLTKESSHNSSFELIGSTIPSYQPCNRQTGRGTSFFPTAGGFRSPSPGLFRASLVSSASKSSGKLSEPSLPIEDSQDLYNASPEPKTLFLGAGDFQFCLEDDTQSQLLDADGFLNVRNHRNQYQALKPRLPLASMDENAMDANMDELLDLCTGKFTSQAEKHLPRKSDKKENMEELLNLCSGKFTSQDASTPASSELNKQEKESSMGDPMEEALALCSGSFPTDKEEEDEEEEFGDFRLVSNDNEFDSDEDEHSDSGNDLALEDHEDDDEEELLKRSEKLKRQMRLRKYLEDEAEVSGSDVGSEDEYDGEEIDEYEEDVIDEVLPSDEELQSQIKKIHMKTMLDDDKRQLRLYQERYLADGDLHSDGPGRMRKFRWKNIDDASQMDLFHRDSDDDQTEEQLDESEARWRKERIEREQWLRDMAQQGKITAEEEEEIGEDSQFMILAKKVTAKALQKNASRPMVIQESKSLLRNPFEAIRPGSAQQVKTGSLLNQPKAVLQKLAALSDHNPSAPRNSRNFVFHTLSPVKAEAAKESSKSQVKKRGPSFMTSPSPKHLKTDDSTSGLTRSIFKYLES

[1] = target: T3, human CDC45‐MCM‐GINS (CMG) helicase (human, UniProt P49736 1-904; P25205 1-808; P33991 1-863; P33992 1-734; Q14566 1-821; P33993 …); experiment: co-sedimentation; native glycerol gradient without cross-linker (40 mM HEPES-NaOH pH 7.5, 150 mM NaOAc, 0.5 mM TCEP, 500 µM AMP-PNP, 3 mM Mg(OAc)2), 200,000 g, 4°C, 2 h; 100 nM CMG pre-incubated with fork DNA, 1.5-fold molar excess of the other proteins; fractions on silver-stained SDS-PAGE
T3 construct: MCM2, human; MCM3, human; the construct lacks the 45 additional N-terminal amino acids of the longer isoform used in PDB 6XTX; MCM4, human; MCM5, human; MCM6, human; MCM7, human; CDC45, human; PSF1 (GINS subunit), human; PSF2 (GINS subunit), human; PSF3 (GINS subunit), human; SLD5 (GINS subunit), human; also called hsCMG; source: Hi5 insect cells co-infected with baculoviruses for MCM2-7, GINS …

TIMELESS = target: T1, TIMELESS; experiment: cryo-EM structure; replisome reconstituted on fork DNA with AMP-PNP, isolated on a glycerol gradient with glutaraldehyde and BS3; 3.2 Å overall; a sample without CLASPIN solved at 3.4 Å

Binder | binding result (CLASPIN) | other results
TIMELESS (natural protein, human, residues 7-803 modelled, 527-684 not seen; Purified together with TIPIN; written here as a single subunit for the pairwise contacts in the replisome structure) MDLHMMNCELLATCSALGYLEGDTYHKEPDCLESVKDLIRYLRHEDETRDVRQQLGAAQILQSDLLPILTQHHQDKPLFDAVIRLMVNLTQPALLCFGNLPKEPSFRHHFLQVLTYLQAYKEAFASEKAFGVLSETLYELLQLGWEERQEEDNLLIERILLLVRNILHVPADLDQEKKIDDDASAHDQLLWAIHLSGLDDLLLFLASSSAEEQWSLHVLEIVSLMFRDQNPEQLAGVGQGRLAQERSADFAELEVLRQREMAEKKTRALQRGNRHSRFGGSYIVQGLKSIGERDLIFHKGLHNLRNYSSDLGKQPKKVPKRRQAARELSIQRRSALNVRLFLRDFCSEFLENCYNRLMGSVKDHLLREKAQQHDETYYMWALAFFMAFNRAASFRPGLVSETLSVRTFHFIEQNLTNYYEMMLTDRKEAASWARRMHLALKAYQELLATVNEMDISPDEAVRESSRIIKNNIFYVMEYRELFLALFRKFDERCQPRSFLRDLVETTHLFLKMLERFCRSRGNLVVQNKQKKRRKKKKKVLDQAIVSGNVPSSPEEVEAVWPALAEQLQCCAQNSELSMDSVVPFDAASEVPVEEQRAEAMVRIQDCLLAGQAPQALTLLRSAREVWPEGDVFGSQDISPEEEIQLLKQILSAPLPRQQGPEERGAEEEEEEEEEEEEELQVVQVSEKEFNFLDYLKRFACSTVVRAYVLLLRSYQQNSAHTNHCIVKMLHRLAHDLKMEALLFQLSVFCLFNRLLSDPAAGAYKELVTFAKYILGKFFALAAVNQKAFVELLFWKNTAVVREMTEGYGSLDDRSSSRRAPTWSPEEEAHLRELYLANKDVEGQDVVEAILAHLNTVPRTRKQIIHHLVQMGLADSVKDFQRKGTHIVLWTGDQELELQRLFEEFRDSDDVLGHIMKNITAKRSRARIVDKLLALGLVAERRELYKKRQKKLASSILPNGAESLKDFCQEDLEEEENLPEEDSEEEEEGGSEAEQVQGSLVLSNENLGQSLHQEGFSIPLLWLQNCLIRAADDREEDGCSQAVPLVPLTEENEEAMENEQFQQLLRKLGVRPPASGQETFWRIPAKLSPTQLRRAAASLSQPEEEQKLQPELQPKVPGEQGSDEEHCKEHRAQALRALLLAHKKKAGLASPEEEDAVGKEPLKAAPKKRQLLDSDEEQEEDEGRNRAPELGAPGIQKKKRYQIEDDEDD | binds | –
TIMELESS‐TIPIN heterodimer (complex, human, TIPIN, human; no cleavage is described in the purification; source: Hi5 insect cells (baculovirus), purified (Strep-Tactin XT, HiTrap Q, Superdex 200)) chain 1: MDLHMMNCELLATCSALGYLEGDTYHKEPDCLESVKDLIRYLRHEDETRDVRQQLGAAQILQSDLLPILTQHHQDKPLFDAVIRLMVNLTQPALLCFGNLPKEPSFRHHFLQVLTYLQAYKEAFASEKAFGVLSETLYELLQLGWEERQEEDNLLIERILLLVRNILHVPADLDQEKKIDDDASAHDQLLWAIHLSGLDDLLLFLASSSAEEQWSLHVLEIVSLMFRDQNPEQLAGVGQGRLAQERSADFAELEVLRQREMAEKKTRALQRGNRHSRFGGSYIVQGLKSIGERDLIFHKGLHNLRNYSSDLGKQPKKVPKRRQAARELSIQRRSALNVRLFLRDFCSEFLENCYNRLMGSVKDHLLREKAQQHDETYYMWALAFFMAFNRAASFRPGLVSETLSVRTFHFIEQNLTNYYEMMLTDRKEAASWARRMHLALKAYQELLATVNEMDISPDEAVRESSRIIKNNIFYVMEYRELFLALFRKFDERCQPRSFLRDLVETTHLFLKMLERFCRSRGNLVVQNKQKKRRKKKKKVLDQAIVSGNVPSSPEEVEAVWPALAEQLQCCAQNSELSMDSVVPFDAASEVPVEEQRAEAMVRIQDCLLAGQAPQALTLLRSAREVWPEGDVFGSQDISPEEEIQLLKQILSAPLPRQQGPEERGAEEEEEEEEEEEEELQVVQVSEKEFNFLDYLKRFACSTVVRAYVLLLRSYQQNSAHTNHCIVKMLHRLAHDLKMEALLFQLSVFCLFNRLLSDPAAGAYKELVTFAKYILGKFFALAAVNQKAFVELLFWKNTAVVREMTEGYGSLDDRSSSRRAPTWSPEEEAHLRELYLANKDVEGQDVVEAILAHLNTVPRTRKQIIHHLVQMGLADSVKDFQRKGTHIVLWTGDQELELQRLFEEFRDSDDVLGHIMKNITAKRSRARIVDKLLALGLVAERRELYKKRQKKLASSILPNGAESLKDFCQEDLEEEENLPEEDSEEEEEGGSEAEQVQGSLVLSNENLGQSLHQEGFSIPLLWLQNCLIRAADDREEDGCSQAVPLVPLTEENEEAMENEQFQQLLRKLGVRPPASGQETFWRIPAKLSPTQLRRAAASLSQPEEEQKLQPELQPKVPGEQGSDEEHCKEHRAQALRALLLAHKKKAGLASPEEEDAVGKEPLKAAPKKRQLLDSDEEQEEDEGRNRAPELGAPGIQKKKRYQIEDDEDD chain 2: MLEPQENGVIDLPDYEHVEDETFPPFPPPASPERQDGEGTEPDEESGNGAPVRVPPKRTVKRNIPKLDAQRLISERGLPALRHVFDKAKFKGKGHEAEDLKMLIRHMEHWAHRLFPKLQFEDFIDRVEYLGSKKEVQTCLKRIRLDLPILHEDFVSNNDEVAENNEHDVTSTELDPFLTNLSESEMFASELSRSLTEEQQQRIERNKQLALERRQAKLLSNSQTLGNDMLMNTPRAHTVEEVNTDEDQKEESNGLNEDILDNPCNDAIANTLNEEETLLDQSFKNVQQQLDATSRNITEAR | – | binding result [1]: binds
MCM6 (natural protein, human, human MCM6, subunit of hsCMG; Subunit of the CMG helicase in the replisome structure; source: Hi5 insect cells co-infected with baculoviruses for MCM2-7, GINS and CDC45; purified as hsCMG (Flag M2, Strep-Tactin XT, MonoQ)) MDLAAAAEPGAGSQHLEVRDEVAEKCQKLFLDFLEEFQSSDGEIKYLQLAEELIRPERNTLVVSFVDLEQFNQQLSTTIQEEFYRVYPYLCRALKTFVKDRKEIPLAKDFYVAFQDLPTRHKIRELTSSRIGLLTRISGQVVRTHPVHPELVSGTFLCLDCQTVIRDVEQQFKYTQPNICRNPVCANRRRFLLDTNKSRFVDFQKVRIQETQAELPRGSIPRSLEVILRAEAVESAQAGDKCDFTGTLIVVPDVSKLSTPGARAETNSRVSGVDGYETEGIRGLRALGVRDLSYRLVFLACCVAPTNPRFGGKELRDEEQTAESIKNQMTVKEWEKVFEMSQDKNLYHNLCTSLFPTIHGNDEVKRGVLLMLFGGVPKTTGEGTSLRGDINVCIVGDPSTAKSQFLKHVEEFSPRAVYTSGKASSAAGLTAAVVRDEESHEFVIEAGALMLADNGVCCIDEFDKMDVRDQVAIHEAMEQQTISITKAGVKATLNARTSILAAANPISGHYDRSKSLKQNINLSAPIMSRFDLFFILVDECNEVTDYAIARRIVDLHSRIEESIDRVYSLDDIRRYLLFARQFKPKISKESEDFIVEQYKHLRQRDGSGVTKSSWRITVRQLESMIRLSEAMARMHCCDEVQPKHVKEAFRLLNKSIIRVETPDVNLDQEEEIQMEVDEGAGGINGHADSPAPVNGINGYNEDINQESAPKASLRLGFSEYCRISNLIVLHLRKVEEEEDESALKRSELVNWYLKEIESEIDSEEELINKKRIIEKVIHRLTHYDHVLIELTQAGLKGSTEGSESYEEDPYLVVNPNYLLED | binds | –
MCM4 (natural protein, human, MCM4, human; Stood in the structure as a subunit of m1; source: Hi5 insect cells, purified as a subunit of hsCMG) MSSPASTPSRRGSRRGRATPAQTPRSEDARSSPSQRRRGEDSTSTGELQPMPTSPGVDLQSPAAQDVLFSSPPQMHSSAIPLDFDVSSPLTYGTPSSRVEGTPRSGVRGTPVRQRPDLGSAQKGLQVDLQSDGAAAEDIVASEQSLGQKLVIWGTDVNVAACKENFQRFLQRFIDPLAKEEENVGIDITEPLYMQRLGEINVIGEPFLNVNCEHIKSFDKNLYRQLISYPQEVIPTFDMAVNEIFFDRYPDSILEHQIQVRPFNALKTKNMRNLNPEDIDQLITISGMVIRTSQLIPEMQEAFFQCQVCAHTTRVEMDRGRIAEPSVCGRCHTTHSMALIHNRSLFSDKQMIKLQESPEDMPAGQTPHTVILFAHNDLVDKVQPGDRVNVTGIYRAVPIRVNPRVSNVKSVYKTHIDVIHYRKTDAKRLHGLDEEAEQKLFSEKRVELLKELSRKPDIYERLASALAPSIYEHEDIKKGILLQLFGGTRKDFSHTGRGKFRAEINILLCGDPGTSKSQLLQYVYNLVPRGQYTSGKGSSAVGLTAYVMKDPETRQLVLQTGALVLSDNGICCIDEFDKMNESTRSVLHEVMEQQTLSIAKAGIICQLNARTSVLAAANPIESQWNPKKTTIENIQLPHTLLSRFDLIFLLLDPQDEAYDRRLAHHLVALYYQSEEQAEEELLDMAVLKDYIAYAHSTIMPRLSEEASQALIEAYVDMRKIGSSRGMVSAYPRQLESLIRLAEAHAKVRLSNKVEAIDVEEAKRLHREALKQSATDPRTGIVDISILTTGMSATSRKRKEELAEALKKLILSKGKTPALKYQQLFEDIRGQSDIAITKDMFEEALRALADDDFLTVTGKTVRLL | – | binding result (TIMELESS): binds
